Data as given in publication PMC5014123 (Nature communications, 2015).
Values joined by “and” are separate entries in the source; they are usually repeats but may differ in a detail not shown here. Identical values can stand only once. Non-standard residues stand in square brackets, D forms with d.

B1: cyclo-RLsKDK (BK-1361) (peptide)
peptide: cyclo(RL[dS]KDK)
SMILES: CC(C)C[C@@H]1NC(=O)[C@H](CCCNC(=N)N)NC(=O)[C@H](CCCCN)NC(=O)[C@H](CC(=O)O)NC(=O)[C@H](CCCCN)NC(=O)[C@@H](CO)NC1=O
B2: Inactive recombinant human ADAM8 (Met1-Pro497) (domain or fragment, UniProt P78325-1 17-497, looked up)
chain: IAPSRPWALMEQYEVVLPWRLPGPRVRRALPSHLGLHPERVSYVLGATGHNFTLHLRKNRDLLGSGYTETYTAANGSEVTEQPRGQDHCFYQGHVEGYPDSAASLSTCAGLRGFFQVGSDLHLIEPLDEGGEGGRHAVYQAEHLLQTAGTCGVSDDSLGSLLGPRTAAVFRPRPGDSLPSRETRYVELYVVVDNAEFQMLGSEAAVRHRVLEVVNHVDKLYQKLNFRVVLVGLEIWNSQDRFHVSPDPSVTLENLLTWQARQRTRRHLHDNVQLITGVDFTGTTVGFARVSAMCSHSSGAVNQDHSKNPVGVACTMAHEMGHNLGMDHDENVQGCRCQERFEAGRCIMAGSIGSSFPRMFSDCSQAYLESFLERPQSVCLANAPDLSHLVGGPVCGNLFVERGEQCDCGPPEDCRNRCCNSTTCQLAEGAQCAHGTCCQECKVKPAGELCRPKKDMCDLEEFCDGRHPECPEDAFQENGTP

Tests used:
MMP-2 = MMP-2 (UniProt P08253 30-660); experiment: cell-based or functional assay
MMP-2, sequence (P08253 30-660): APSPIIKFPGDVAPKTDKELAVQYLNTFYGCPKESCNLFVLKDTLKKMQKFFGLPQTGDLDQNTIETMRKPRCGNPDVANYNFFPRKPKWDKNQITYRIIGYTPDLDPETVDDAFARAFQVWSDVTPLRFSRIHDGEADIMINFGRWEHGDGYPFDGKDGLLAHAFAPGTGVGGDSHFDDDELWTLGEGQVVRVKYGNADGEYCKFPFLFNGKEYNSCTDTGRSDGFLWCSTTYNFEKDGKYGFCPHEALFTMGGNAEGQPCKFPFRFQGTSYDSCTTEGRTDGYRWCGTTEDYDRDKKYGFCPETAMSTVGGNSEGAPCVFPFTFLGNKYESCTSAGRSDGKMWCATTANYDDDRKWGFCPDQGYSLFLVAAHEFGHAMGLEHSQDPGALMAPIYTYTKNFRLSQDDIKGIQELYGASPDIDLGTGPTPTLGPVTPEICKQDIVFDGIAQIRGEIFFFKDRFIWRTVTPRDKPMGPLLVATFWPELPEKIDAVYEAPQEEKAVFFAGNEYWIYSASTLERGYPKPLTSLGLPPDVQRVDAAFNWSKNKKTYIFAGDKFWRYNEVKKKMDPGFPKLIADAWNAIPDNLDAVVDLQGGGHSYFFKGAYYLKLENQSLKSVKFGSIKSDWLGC

MMP-14 = MMP-14 (UniProt P50281 112-541); experiment: cell-based or functional assay
native gel or EMSA = target: the molecule itself; experiment: native gel or EMSA

Row | Binder | IC50 of inhibition of catalytic activity (substrate Mca-PLGL-Dpa-AR-NH2) (MMP-2) [µM] | IC50 of inhibition of catalytic activity (substrate Mca-KPLGL-Dpa-AR-NH2) (MMP-14) [µM] | stoichiometry N (native gel or EMSA)
1 | B1 | > 10 | > 10 | 
2 | B2 |  |  | 2 and 3
